Measured values as given in US20030143656A1 (published 2003).
Several values for one entry are separate records, joined by “and”; a condition that tells them apart may be missing. Equal values may be shown once. Where no end group is shown, it is not given here. The star is where a group is joined. Biotin = O=C1N[C@H]2[C@H](CS[C@H]2CCCCC(=O)*)N1

T1: His-PDK1 (human, UniProt O15530 52-556)
T1 construct: range 52-556; Expressed in Sf9 cells; also called His-tagged PDK1; PDK1 (residues 52-556) with a hexahistidine tag; not shown: N-terminal hexahistidine (His) tag
T1 sequence (looked up): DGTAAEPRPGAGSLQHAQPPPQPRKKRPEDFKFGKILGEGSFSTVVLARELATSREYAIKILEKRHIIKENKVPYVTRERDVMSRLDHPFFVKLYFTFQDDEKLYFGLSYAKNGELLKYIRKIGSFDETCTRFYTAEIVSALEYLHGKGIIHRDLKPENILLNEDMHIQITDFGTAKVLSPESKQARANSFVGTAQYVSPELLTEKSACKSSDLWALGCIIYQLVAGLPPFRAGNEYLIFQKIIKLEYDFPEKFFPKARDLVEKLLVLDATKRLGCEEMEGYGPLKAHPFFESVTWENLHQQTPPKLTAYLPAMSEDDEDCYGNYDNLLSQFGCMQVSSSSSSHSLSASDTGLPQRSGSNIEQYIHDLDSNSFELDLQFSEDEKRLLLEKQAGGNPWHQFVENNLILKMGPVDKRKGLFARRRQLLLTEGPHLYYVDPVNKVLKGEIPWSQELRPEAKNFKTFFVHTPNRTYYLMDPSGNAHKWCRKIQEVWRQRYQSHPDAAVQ

T2: GST-PDK1 L155D (human, UniProt O15530 1-556)
T2 construct: range 1-556; also called L155D mutant of GST-PDK1; not shown: N-terminal GST tag, pEBG2T vector
T2 sequence (looked up): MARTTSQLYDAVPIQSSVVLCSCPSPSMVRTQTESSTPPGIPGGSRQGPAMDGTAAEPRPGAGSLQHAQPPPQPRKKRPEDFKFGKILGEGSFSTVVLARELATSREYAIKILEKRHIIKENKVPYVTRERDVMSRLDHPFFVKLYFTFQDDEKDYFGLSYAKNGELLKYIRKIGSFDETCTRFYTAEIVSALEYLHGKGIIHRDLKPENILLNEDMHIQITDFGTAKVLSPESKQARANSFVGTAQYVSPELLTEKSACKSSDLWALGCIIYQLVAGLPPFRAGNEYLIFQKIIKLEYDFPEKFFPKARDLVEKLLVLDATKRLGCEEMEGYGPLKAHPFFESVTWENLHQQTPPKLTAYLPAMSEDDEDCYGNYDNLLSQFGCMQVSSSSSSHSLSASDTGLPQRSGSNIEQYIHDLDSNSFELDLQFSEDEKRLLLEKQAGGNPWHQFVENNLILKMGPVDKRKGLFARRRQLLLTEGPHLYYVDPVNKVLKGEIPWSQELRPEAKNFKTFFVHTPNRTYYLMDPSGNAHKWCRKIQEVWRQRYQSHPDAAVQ

T3: GST-PDK1 L155E (human, UniProt O15530 1-556)
T3 construct: range 1-556; not shown: N-terminal GST tag, pEBG2T vector
T3 sequence (looked up): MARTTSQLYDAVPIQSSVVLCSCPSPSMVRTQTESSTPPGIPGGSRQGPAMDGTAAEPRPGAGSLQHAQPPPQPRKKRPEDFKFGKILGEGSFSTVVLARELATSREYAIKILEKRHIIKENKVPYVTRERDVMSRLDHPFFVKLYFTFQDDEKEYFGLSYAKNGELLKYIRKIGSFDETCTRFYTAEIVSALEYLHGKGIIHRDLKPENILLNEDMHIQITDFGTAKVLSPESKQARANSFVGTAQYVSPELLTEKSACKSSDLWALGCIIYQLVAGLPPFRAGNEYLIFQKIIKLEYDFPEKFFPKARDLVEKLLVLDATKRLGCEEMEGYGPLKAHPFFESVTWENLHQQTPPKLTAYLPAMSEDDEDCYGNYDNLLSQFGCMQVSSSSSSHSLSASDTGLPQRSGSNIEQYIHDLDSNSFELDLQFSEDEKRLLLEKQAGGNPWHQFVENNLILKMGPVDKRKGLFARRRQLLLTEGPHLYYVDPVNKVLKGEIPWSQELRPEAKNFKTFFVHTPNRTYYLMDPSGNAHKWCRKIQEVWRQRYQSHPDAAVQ

T4: GST-PDK1 L155S (human, UniProt O15530 1-556)
T4 construct: range 1-556; not shown: N-terminal GST tag, pEBG2T vector
T4 sequence (looked up): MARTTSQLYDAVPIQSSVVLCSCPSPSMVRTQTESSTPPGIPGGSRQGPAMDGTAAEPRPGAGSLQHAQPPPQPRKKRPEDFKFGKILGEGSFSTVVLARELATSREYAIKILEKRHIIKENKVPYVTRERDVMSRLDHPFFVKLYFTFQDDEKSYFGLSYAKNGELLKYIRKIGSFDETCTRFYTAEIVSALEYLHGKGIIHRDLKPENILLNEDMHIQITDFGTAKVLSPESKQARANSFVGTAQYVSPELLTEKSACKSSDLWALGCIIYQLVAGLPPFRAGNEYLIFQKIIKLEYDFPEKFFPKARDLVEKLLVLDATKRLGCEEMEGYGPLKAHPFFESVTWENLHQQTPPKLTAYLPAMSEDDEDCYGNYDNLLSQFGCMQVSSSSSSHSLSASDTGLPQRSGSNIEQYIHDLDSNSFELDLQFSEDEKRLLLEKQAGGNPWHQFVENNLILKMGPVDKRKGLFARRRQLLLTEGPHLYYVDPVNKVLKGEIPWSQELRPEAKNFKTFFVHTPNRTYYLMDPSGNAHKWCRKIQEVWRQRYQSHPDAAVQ


How the values were obtained:
His-PDK1 = biological target: T1, His-PDK1; test: SPR, immobilised biotinylated 24 residue peptide
GST-PDK1 L155D = biological target: T2, GST-PDK1 L155D; test: SPR over immobilised biotinylated PIFtide
Description: (§1) Duplicates of each condition are shown. Similar results were obtained in 3 to 5 separate experiments. (D) Surface Plasmon Resonance measurements were carried out in a BiaCore instrument as described in the Methods to measure the interaction of wild type and mutant GST-PDK1 preparations with the 24 residue synthetic peptide whose sequence encompasses the PDK1 binding site on PIF termed PIFtide [24: Example 2]. PIFtide was immobilised on a SA SensorChip and wild type (wt) or the indicated mutants of PDK1 were injected at a concentration of 40 nM. All data are single determinations from a representative experiment that was repeated at least 3 times with similar results. For clarity, the bulk, refractive index changes associated with the beginning and end 10 seconds of the injection have been removed.
(§2) Binding was analysed directly by surface plasmon resonance in an upgraded Bia-Lite™ system. PIFtide (comprising the last 24 residues of PRK2) was biotinylated though its C-terminal Cys and bound to an streptavidin-coated Sensor/Chip SA, as described previously. Wild type or mutant preparations of GST-PDK1 (10-400 nM) were injected in an intracellular type buffer, over the immobilised biotinylated PIFtide at a flow rate of 30 μl per min as described previously (James et al (1996) Biochem J 315, 709-713). Alternatively, the wild type or mutant preparations of GST-PDK1 (1 μM) were incubated with PIFtide or D978A-PIFtide (0.10 μM) and the mixture injected over the immobilised peptides. The decrease is steady state binding between wild type and mutant GST-PDK1 and peptide was used to determine the Kd of interaction between PDK1 and the peptide. The decrease in the maximal response at different concentrations of peptide was used to evaluate the relative affinities of both peptides for PDK1. The sensor chip surface was regenerated by pulses of 10 mM NaOH. […]

GST-PDK1 L155E [1] = biological target: T3, GST-PDK1 L155E; test: SPR over immobilised biotinylated PIFtide
Description: as §1, §2

GST-PDK1 L155S = biological target: T4, GST-PDK1 L155S; test: SPR over immobilised biotinylated PIFtide
Description: as §1, §2

GST-PDK1 L155E [2] = biological target: T3, GST-PDK1 L155E; test: binding experiment not described (presumably pull-down)
Description: Binding of PDK1 to SGK1 and S6K1. For the data presented in FIG. 22, 293 cells were cotransfected with 10 μg of the wild type or mutant PDK1 plasmid and 10 μg of either the wild type or mutant S6K1 or SGK1. 36 h post-transfection the cells were lysed in 0.6 ml of Buffer A and the lysates were cleared by centrifugation at 13 000×g for 10 min at 2° C., and 0.5 ml of supernatant was incubated for 2 h at 4° C. with 30 μl of glutathione-Sepharose. The beads were washed twice in Buffer A containing 0.5 M NaCl, followed by two further washes in Buffer A. The beads were resuspended in 30 μl Laemmli Sample Buffer and subjected to SDS polyacrylamide gel electrophoresis. The gels were either stained with Coomassie blue, or analysed by immunoblotting with either anti-Flag or anti-Myc antibodies (described below).
Interaction of S6K1 and SGK1 with PDK1. […] We therefore tested whether this could be explained by the inability of full length S6K1 to interact with PDK1. To test this hypothesis we coexpressed in 293 cells GST-PDK1 together with full length S6K1, fill length S6K1[T412E] and the C-terminal truncated forms of these mutants (S6K1-T2 and S6K1-T2[T412E]) which have Flag epitope tags. Glutathione-Sepharose “pull-downs” of GST-PDK1 from these extracts were immunoblotted for the presence of Flag epitope tagged S6K1. […] S6K1-T2[T412E] interacted moderately better with GST-PDK1 compared to S6K1-T2.

Binder | Kd (His-PDK1) | binding result (GST-PDK1 L155D) | binding result (GST-PDK1 L155E [1]) | binding result (GST-PDK1 L155S) | binding result (GST-PDK1 L155E [2])
REPRILSEEEQEMFRDFDYIADWC(Biotin) (also called immobilised, biotinylated synthetic peptide termed PIFtide; immobilised and biotinylated 24 residue synthetic peptide) [biotinylated PIFtide, immobilised] | 800 nM and 1500 nM | no binding (tested: injected at 40 nM) | no binding (tested: injected at 40 nM) | no binding (tested: injected at 40 nM) | –
full length S6K1 mutant in which Thr412 and all five phosphorylated C-terminal residues were mutated to acidic residues (enzyme, human, UniProt P23443 1-525, looked up, mature) MRRRRRRDGFYPAPDFRDREAEDMAGVFDIDLDQPEDAGSEDELEEGGQLNESMDHGGVGPYELGMEHCEKFEISETSVNRGPEKIRPECFELLRVLGKGGYGKVFQVRKVTGANTGKIFAMKVLKKAMIVRNAKDTAHTKAERNILEEVKHPFIVDLIYAFQTGGKLYLILEYLSGGELFMQLEREGIFMEDTACFYLAEISMALGHLHQKGIIYRDLKPENIMLNHQGHVKLTDFGLCKESIHDGTVTHTFCGTIEYMAPEILMRSGHNRAVDWWSLGALMYDMLTGAPPFTGENRKKTIDKILKCKLNLPPYLTQEARDLLKKLLKRNAASRLGAGPGDAGEVQAHPFFRHINWEELLARKVEPPFKPLLQSEEDVSQFDSKFTRQTPVDSPDDSTLSESANQVFLGFEYVAPSVLESVKEKFSFEPKIRDPRRFIGDPREPVDPVKFDPGDFWGRGASASTANPQTPVEYPMETSGIEQMDVTMSGEASAPLPIRQPNSGPYKKQAFPMISKRPEHLRMNL | – | – | – | – | no binding
